We go through 62 sequences from the supplement of paper PMC9112550, “Optimization of the antimicrobial peptide Bac7 by deep mutational scanning” (BMC Biology, 2022).

The test system of this series is Escherichia coli TOP10. As to the kind of experiment: shrunken log2 fold change of peptide-encoding DNA abundance (4.5 h post-induction vs induction); higher = less antimicrobial activity (less host growth inhibition). The following applies: time post-induction: 4.5 h; library: site-saturation at positions 5, 18, 19, 20.
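Also: peptides expressed intracellularly from a pBAD plasmid library in pooled LB shake-flask culture, induced with 0.3% L-arabinose, DNA abundance read by NGS, three biological replicates, DESeq2 with apeglm shrinkage.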

RRIRQRPPRLPRPRPRPLLAPRP: the “shrunken log2 fold change” value was found to be 0.328.
RRIRSRPPRLPRPRPRPQIRPRP: the “shrunken log2 fold change” value stood at 0.267.
For RRIRKRPPRLPRPRPRPGPHPRP, the “shrunken log2 fold change” value was 0.803.
As for RRIRVRPPRLPRPRPRPYDTPRP, the “shrunken log2 fold change” value stood at 1.6.
For the sequence RRIRARPPRLPRPRPRPCWKPRP, the “shrunken log2 fold change” value is -0.16.
With RRIRGRPPRLPRPRPRPYVLPRP, the “shrunken log2 fold change” value was -0.114.
In the case of RRIRSRPPRLPRPRPRPKSFPRP it was 0.172.
Consider RRIRIRPPRLPRPRPRPESVPRP, for which the “shrunken log2 fold change” value was -0.00682.
Under RRIRERPPRLPRPRPRPPLWPRP stands 0.779; under RRIRYRPPRLPRPRPRPTDKPRP, -0.347; under RRIRFRPPRLPRPRPRPKTVPRP, -0.117.
In the case of RRIRCRPPRLPRPRPRPPQLPRP, the “shrunken log2 fold change” value worked out at 0.329.
In the case of RRIRWRPPRLPRPRPRPAGCPRP it was 0.28.
As to RRIRWRPPRLPRPRPRPYLGPRP, the “shrunken log2 fold change” value is -0.616.
Take RRIRNRPPRLPRPRPRPDPEPRP: the “shrunken log2 fold change” value amounted to 0.211.
As to RRIRFRPPRLPRPRPRPCAKPRP, the “shrunken log2 fold change” value was -0.0688.
Under RRIRDRPPRLPRPRPRPPGTPRP stands 0.435; under RRIRMRPPRLPRPRPRPIDRPRP, -0.0322.
With RRIRKRPPRLPRPRPRPVVEPRP, the “shrunken log2 fold change” value turned out to be 0.274.
With RRIRIRPPRLPRPRPRPSKWPRP, the “shrunken log2 fold change” value is -0.539.
Regarding RRIRIRPPRLPRPRPRPDYVPRP, the “shrunken log2 fold change” value came out at 0.012.
Turning to RRIRSRPPRLPRPRPRPNFPPRP, the “shrunken log2 fold change” value worked out at 0.0832.
For RRIRPRPPRLPRPRPRPLGHPRP, the “shrunken log2 fold change” value was determined as 0.163.
For RRIRFRPPRLPRPRPRPYVRPRP, the “shrunken log2 fold change” value is -0.0985.
In the case of RRIRCRPPRLPRPRPRPPWPPRP it was 0.54; in that of RRIRDRPPRLPRPRPRPHHRPRP, -0.277; in that of RRIRRRPPRLPRPRPRPKGYPRP, 0.172.
Consider RRIRRRPPRLPRPRPRPSEDPRP, for which the “shrunken log2 fold change” value was found to be 0.0524.
Consider RRIRIRPPRLPRPRPRPNMDPRP, for which the “shrunken log2 fold change” value is -0.874.
Turning to RRIRTRPPRLPRPRPRPNHIPRP, the “shrunken log2 fold change” value was -0.825.
With RRIRIRPPRLPRPRPRPAIFPRP, the “shrunken log2 fold change” value is -0.102.
As to RRIRNRPPRLPRPRPRPQVSPRP, the “shrunken log2 fold change” value is -0.434.
In the case of RRIRCRPPRLPRPRPRPWTFPRP it was -0.126.
In the case of RRIRARPPRLPRPRPRPELWPRP, the “shrunken log2 fold change” value is 1.3.
For the sequence RRIRMRPPRLPRPRPRPGGCPRP, the “shrunken log2 fold change” value turned out to be 0.888.
RRIRDRPPRLPRPRPRPPVAPRP: the “shrunken log2 fold change” value turned out to be 0.304.
Regarding RRIRGRPPRLPRPRPRPNMPPRP, the “shrunken log2 fold change” value was -0.317.
Consider RRIRHRPPRLPRPRPRPIAAPRP, for which the “shrunken log2 fold change” value is -0.0333.
In the case of RRIRHRPPRLPRPRPRPKPEPRP it was 0.0966; in that of RRIRSRPPRLPRPRPRPDSHPRP, -0.36; in that of RRIRVRPPRLPRPRPRPPQAPRP, 0.0808.
For RRIRFRPPRLPRPRPRPFGNPRP, the “shrunken log2 fold change” value turned out to be 0.0348.
Take RRIRPRPPRLPRPRPRPSEMPRP: the “shrunken log2 fold change” value is -0.216.
With RRIRLRPPRLPRPRPRPWCQPRP, the “shrunken log2 fold change” value was -0.0199.
Regarding RRIRIRPPRLPRPRPRPLCIPRP, the “shrunken log2 fold change” value was -0.484.
Under RRIRGRPPRLPRPRPRPICNPRP stands 0.645; under RRIRPRPPRLPRPRPRPDITPRP, -0.783; under RRIRNRPPRLPRPRPRPMFLPRP, -0.241.
Under RRIRDRPPRLPRPRPRPTERPRP stands 0.463.
RRIRSRPPRLPRPRPRPWQMPRP: the “shrunken log2 fold change” value came to 0.0651.
Consider RRIRWRPPRLPRPRPRPFSIPRP, for which the “shrunken log2 fold change” value is -0.228.
For the sequence RRIRIRPPRLPRPRPRPKWKPRP, the “shrunken log2 fold change” value is -0.152.
Consider RRIRKRPPRLPRPRPRPDSPPRP, for which the “shrunken log2 fold change” value is -0.0585.
For RRIRFRPPRLPRPRPRPPNVPRP, the “shrunken log2 fold change” value is 0.0696.
In the case of RRIRVRPPRLPRPRPRPYHIPRP it was -1.2; in that of RRIRIRPPRLPRPRPRPPHFPRP, -0.138; in that of RRIRWRPPRLPRPRPRPTHWPRP, 0.322.
As for RRIRCRPPRLPRPRPRPDYHPRP, the “shrunken log2 fold change” value is -0.903.
As for RRIRKRPPRLPRPRPRPYAPPRP, the “shrunken log2 fold change” value was -0.241.
As to RRIRDRPPRLPRPRPRPHLWPRP, the “shrunken log2 fold change” value worked out at 0.611.
On to RRIRRRPPRLPRPRPRPYVMPRP, for which the “shrunken log2 fold change” value was -0.882.
RRIRCRPPRLPRPRPRPQCIPRP: the “shrunken log2 fold change” value was -0.458.
